Results from article PMC11025326 (Journal of Bacteriology, 2024).

B1: 6xHisN-LapB^ΔTM (LapB^Δ1-22aa) (domain or fragment, S. Typhimurium, UniProt Q7CQG6 23-389, looked up)
chain: SAQQTKQDEANRLSRDYVAGVNFLLSNQQDKAVDLFLDMLKEDTGTVEAHLTLGNLFRSRGEVDRAIRIHQTLMESASLTYEQRLLAVQQLGRDYMAAGLYDRAEDMFNQLTDETEFRVGALQQLLQIYQLTSDWQKAIEVAERLVKLGKDKQRIEIAHFYCELALQQMGNDDMDRAMALLKKGAAADKNSARVSIMMGRVYMARGDYAKAVESLQRVIVQDKELVSETLEMLQTCYQQLGKNAEWAEFLRRAVEENTGAGAELMLADILEAREGSDAAQVYITRQLQRHPTMRVFHKLMDYHLNEAEEGRAKESLMVLRDMVGEQVRSKPRYRCQKCGFTAYTLYWHCPSCRAWSTIKPIRGLDGQ
notes: LPS assembly protein B (LapB/YciM), S. Typhimurium; transmembrane segment (residues 1-22) removed and replaced by an N-terminal polyhistidine tag; By calibrated gel filtration a homotrimer when alone, and two copies in the complex with one LpxC; also called 6xHisNLapB^Δ1-22; LapB cytosolic domain; source: E. coli BL21 (DE3), pACYC-Duet1, IPTG; in soluble lysate for the microscale co-purification; …
B2: LpxC^Δ293-305-S-Tag (enzyme)
chain: MIKQRTLKRIVQATGVGLHTGKKVTLTLRPAPANTGVIYRRTDLNPPVDFPADAKSVRDTMLCTCLVNEHDVRISTVEHLNAALAGLGIDNIVIEVNAPEIPIMDGSAAPFVYLLLDAGIDELNCAKKFVRIKETVRVEDGDKWAEFRPYNGFTLDFTIDFNHPAIDSSSQRYAMNFSADAFMRQISRARTFGFMRDIEYLQSRGLCLGGSFDCAIVVDDYRVLNEDGLRFEDEFVRHKMLDAIGDLFMCGHNIIGAFTAYKSGHALNNKLLQAVLAKQEAWEFVTFQDDAE
notes: not shown: S-tag, C-terminal, kept

Key:
[1] = target: the molecule itself; test: SEC; calibrated Superdex 200 Increase 10/300 GL; purified LapB^ΔTM alone, 0.5 mg/mL; 20 mM HEPES, 300 mM NaCl, 10% glycerol, 1 mM DTT, pH 7.0
[2] = target: the molecule itself; test: SEC; calibrated Superdex 200 Increase 10/300 GL; co-purified LapB^ΔTM-LpxC^Δ293-305 complex, 0.5 mg/mL; 20 mM HEPES, 300 mM NaCl, 10% glycerol, 1 mM DTT, pH 7.0
[3] = target: B1; test: SEC; conditions: both partners purified

B1
stoichiometry N [1]: 3
stoichiometry N [2]: 2

B2
stoichiometry N [3]: 0.5 LpxC per LapB chain
